Values quoted from earlier work as cited in article PMC4454452.

Assays:
[1] = molecular target: Histone H3 peptide (H3K9me3) (Homo sapiens) (UniProt P68431)
[2] = molecular target: Histone H3 peptide (H3K9me0) (Homo sapiens) (UniProt P68431)

CHD4 PHD2, sequence (Q14839 449-496): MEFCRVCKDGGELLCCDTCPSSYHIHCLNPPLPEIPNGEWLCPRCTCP

Kd [1]: 900 nM
Kd [2]: 19 µM
Substance: CHD4 PHD2 (from UniProt Q14839)
